The values that follow come from publication PMC10344873 (2023).

First the molecules themselves.
B1: wild type p16-NLuc (mouse p16 tagged with NanoLuc luciferase) [mouse] / 3×Flag-tagged wild type CDK6 [mouse (by the printed Gene ID 12571; not stated in words for CDK6)] (parent complex)
chain 1: MESAADRLARAAAQGRVHDVRALLEAGVSPNAPNSFGRTPIQVMMMGNVHVAALLLNYGADSNCEDPTTFSRPVHDAAREGFLDTLVVLHGSGARLDVRDAWGRLPLDLAQERGHQDIVRYLRSAGCSLCSAGWSLCTAGNVAQTDGHSFSSSTPRALELRGQSQEQS
chain 2: MEKDSLSRADQQYECVAEIGEGAYGKVFKARDLKNGGRFVALKRVRVQTSEEGMPLSTIREVAVLRHLETFEHPNVVRLFDVCTVSRTDRETKLTLVFEHVDQDLTTYLDKVPEPGVPTETIKDMMFQLLRGLDFLHSHRVVHRDLKPQNILVTSSGQIKLADFGLARIYSFQMALTSVVVTLWYRAPEVLLQSSYATPVDLWSVGCIFAEMFRRKPLFRGSSDVDQLGKILDIIGLPGEEDWPRDVALPRQAFHSKSAQPIEKFVTDIDELGKDLLLKCLTFNPAKRISAYGALNHPYFQDLERYKDNLNSHLPSNQSTSELNTA

In one assay the parent is B1. As to the kind of experiment: LUMIER assay (Flag IP, on-bead NanoLuc bioluminescence); HEK293T cells, transient expression; n = 6 independent experiments; signals normalised on input; parent: 1; read off a plot.
On to chain 2 D110H, for which the ratio to parent is about 0.6. Regarding chain 2 D102N, the ratio to parent was about 0.5.

The variants in the next assay derive from B1. Described as above. This is another data set of the same source.
With chain 1 G47D, the ratio to parent is about 0.08. Same read-out and setting: to chain 1 P73L belongs about 0.6.

As to chain 1 G15S, the ratio to parent is about 0.18.
